For test [1], the target named is T1, recombinant Plasmodium falciparum circumsporozoite protein (rPfCSP) (Plasmodium falciparum 3D7, UniProt Q7K740).
T1 construct: full-length circumsporozoite (CS) protein of 3D7, a clone of the NF54 strain of P. falciparum; also called CS protein
The test is described as follows: BLI; Octet RED384; rPfCSP on the sensor, purified IgG at 2, 1, 0.5, 0.25, 0.125 ug/mL; 1:1 model; apparent affinity. Conditions: both partners purified.

In test [2] the target is T1, recombinant Plasmodium falciparum …. Description: BLI; Octet RED384; rPfCSP on the sensor, mouse serum 8 weeks after AAV administration with the mAb at 2, 1, 0.5, 0.25, 0.125 ug/mL; 1:1 model; apparent affinity. Conditions: one partner purified.

T1 sequence (Q7K740 19-374): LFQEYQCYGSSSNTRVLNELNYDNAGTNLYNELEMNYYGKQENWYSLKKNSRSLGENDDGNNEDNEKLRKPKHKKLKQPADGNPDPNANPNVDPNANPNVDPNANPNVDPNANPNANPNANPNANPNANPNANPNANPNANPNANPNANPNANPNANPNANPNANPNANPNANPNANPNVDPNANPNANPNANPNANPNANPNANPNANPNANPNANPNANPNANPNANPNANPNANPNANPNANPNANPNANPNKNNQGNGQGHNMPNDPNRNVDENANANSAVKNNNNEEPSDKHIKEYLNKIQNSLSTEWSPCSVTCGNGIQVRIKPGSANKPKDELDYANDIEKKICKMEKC

B1: CIS43 human monoclonal antibody (antibody, V domains shown)
VH: QVQLVQSGAEVKKPGASVKVSCKASGYTFTSYAIHWVRQAPGQRLEWMGWIKAGNGNTRYSQKFQDRVTITRDTSTTTAYMELSSLRSEDTAVYYCALLTVLTPDDAFDIWGQGTMVTVSS
VL: not shown
notes: the secreted chain begins at QVQLVQ; light chain of CIS43; IgG1 by the printed constant region; also called rCIS43; CIS43 IgG; source: Expi293 (GenScript) or CHO cells, purified (protein-A column; Superdex200 before BLI)
B1: the Kd in test [1] is 5 nM.

B2: CIS43 expressed in vivo from an AAV vector (CIS43-AAV), in mouse serum (antibody, V domains shown)
VH: QVQLVQSGAEVKKPGASVKVSCKASGYTFTSYAIHWVRQAPGQRLEWMGWIKAGNGNTRYSQKFQDRVTITRDTSTTTAYMELSSLRSEDTAVYYCALLTVLTPDDAFDIWGQGTMVTVSS
VL: not shown
notes: synthesised and cloned into the VIP vector; human IgG1 heavy chain constant region of the VIP expression vector; light chain variable region of CIS43, as in the light chain of Dm1; human kappa light chain constant region of the VIP expression vector; Heavy and light chain are made from one transcript, separated by an F2A self-processing peptide; also called AAV-expressed CIS43; source: expressed …
As to B2, in test [2], the Kd is 2.3 nM.

For the origin of these results see article PMC7934869 (JCI Insight, 2021).
